Assay [1] concerns the target Protective antigen (Bacillus anthracis) (UniProt P13423). The conditions noted are these: cited from earlier work.
Assay [2] shares this target. To be noted: cited from earlier work. The source holds these as a separate data set.
For assay [3], the target named is Laminin-111. The experiment in a line: ELISA.

Results on 3 substances are retold here after paper PMC9250616.

Read-outs that look alike come from different tables or passages of the source.

CMG2 (from UniProt P58335): in assay [1], the Kd is 0.2 nM.

TEM8 (from UniProt Q9H6X2): the Kd in assay [2] is 10 nM.

For the substance “biotinylated CMG2-AviTag construct (capillary morphogenesis gene 2, anthrax toxin receptor 2) (from UniProt P58335 34-489)”, in assay [3], the Kd came out at 500 nM.
